The series in a line: In vitro release (cumulative cleavage) from PEG-Glu-Lys conjugates in PBS (fluorescamine assay). Format: physicochemical. As for the experimental part: PEG-Glu(NH2)-(α)Lys(Z)OMe conjugate (15 mg) was dissolved in PBS (15 ml) and incubated at 37° C. Aliquots (50 μL) were taken at regular time intervals and the sample aliquots were dried using a CentriVap (Labconco Corporation, Kansas City, Mo.). The cumulative cleavage (%) of Lys(Z)OMe from PEG-Glu(NH2)-(α)Lys(Z)OMe conjugate was measured using fluorescamine assay^24.
PEG-Glu(NH2)-(ε)Lys(Z)OMe conjugates (15 mg) was dissolved in PBS (15 ml) and incubated at […] Aliquots (50 μL) were taken at regular time intervals and the sample aliquots were dried using a CentriVap (Labconco Corporation, Kansas City, Mo.). The cumulative cleavage (%) of Z-LysOMe from PEG-Glu(NH2)-(ε)Lys(Z)OMe conjugate was measured using fluorescamine assay^24.

Consider “PEG-Glu(NH2)-(α)Lys(Z)OMe [PEG-Glu(NH2)-(α)Lys(Z)OMe conjugate]”, for which the “release (cumulative cleavage) of Lys(Z)OMe from conjugate” value (37° C., at the time under E13) is given as approximately 99%. For the same substance, the “time of Lys(Z)OMe release from conjugate” value (37° C., extent under E12) came out at 490 h.
As to “PEG-Glu(NH2)-(ε)Lys(Z)OMe [PEG-Glu(NH2)-(ε)Lys(Z)OMe conjugate]”, under “7° C., at the time under E15”, the “Z-LysOMe released from conjugate” value amounted to 99%. Further, the “time of Z-LysOMe release from conjugate” value (7° C., extent under E14) is on record as approximately 29 h.

The values are drawn from patent publication US9345662B2, “Degradable hydrogel compositions and methods” (RUTGERS, THE STATE UNIVERSITY OF NEW JERSEY, priority 2008, dated 2016).
